From patent US20190352354A1 come the findings set out here.

This test addresses commercial Trail (TNF-related apoptosis-inducing ligand, TRAIL) (UniProt P50591). Nature of the test: cell-based or functional assay.

Chain of commercial DR5-Fc fusion protein (R&D Systems) (O14763 52-182): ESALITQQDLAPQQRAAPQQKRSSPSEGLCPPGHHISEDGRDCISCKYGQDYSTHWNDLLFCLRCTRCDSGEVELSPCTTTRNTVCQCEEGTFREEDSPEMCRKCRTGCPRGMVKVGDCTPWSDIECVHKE
Chain of commercial Trail (TNF-related apoptosis-inducing ligand, TRAIL) (P50591 114-281 limits assumed): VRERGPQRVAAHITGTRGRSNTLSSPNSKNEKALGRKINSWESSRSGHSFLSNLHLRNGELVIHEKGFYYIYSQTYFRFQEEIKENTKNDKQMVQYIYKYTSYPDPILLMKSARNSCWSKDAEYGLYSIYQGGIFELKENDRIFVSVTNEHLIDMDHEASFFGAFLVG

Substance “commercial DR5-Fc fusion protein (R&D Systems) (from UniProt O14763 52-182)” yielded an EC50 of blocking TRAIL-induced apoptosis of HepG2 cells of 27.6 ng/mL and an EC50 of blocking Trail (at EC90) killing of Jurkat cells, MTS/PMS A490-A630 of 71.8 ng/mL.
